Test results reported in patent publication US20260365692A1, “COMPOSITIONS COMPRISING PROTEINS DISSOLVED IN FLUORINATED SOLVENTS, AND METHODS OF MAKING AND USING THE SAME” (priority 2022, published 2026).

How the values were obtained:
TFN = TFN (Bos taurus, UniProt Q29443); assay: 19F NMR of PFNA with TFN; format: binding, bovine
Excerpt: This further supported the conclusion that, like TFE, adsorption of PFNA to protein surfaces aligned the fluorinated tail parallel to the solvent accessible exterior, with further stabilization via F . . . H bonding with surface N—H groups (FIG. 12, FIGS. 12A-12E, and FIG. 13). This ultimately generated the fluorine rich coating that altered water accessibility and promoted secondary structure.

[1] = test system: bovine serum albumin (BSA), β-Galactosidase (β-Gal), rabbit serum immunoglobulin (IgG), and bovine trypsin; assay: Dispersion efficiency of four model proteins in PFOc (Example 4); format: physicochemical; details: PD:protein molar ratio 1000:1
Description: These compounds were screened to evaluate their ability to disperse four model proteins, bovine serum albumin (BSA), β-Galactosidase (β-Gal), rabbit serum immunoglobulin (IgG), and bovine trypsin into the PFOc solvent. […] […] The samples were then briefly vortexed/sonicated then constantly mixed overnight to ensure proper fluorine dispersion. After that, samples were centrifuged at 1950 g for 5 minutes to remove non-dispersed portion, and 100 μL supernatant of dispersed protein sample was transferred into each well of 96-well plate. PFHx solvent was let evaporate at 37 °C for two hours. The remaining protein residue was redissolved in […] PBS, and an equal volume of Coomassie solution was added to the sample. In addition, protein prepared in PBS and PFHx (without PFNA) were also identically processed and included as positive and negative control. Lastly, the amount of protein was quantified by taking absorbance of converted Coomassie solution at 595 nm. Dispersion efficiency was calculated as follows:

IgG = assay: Isothermal titration calorimetry, IgG; format: binding, rabbit
Excerpt: To test this assertion, PFNA binding to three exemplary proteins, BSA, β-Gal and IgG, was studied via isothermal titration calorimetry (ITC) and surface plasmon resonance (SPR) techniques. […] SPR analysis yielded similar results, with sensorgrams (FIGS. 14J-14L) that diverged from a simple 1:1 ligand-protein model. […] Similar phenomenon may explain the negative signals of the SPR data and further support the ability of PFNA to modulate the conformational plasticity of adsorbed proteins.

rabbit serum IgG = assay: Circular dichroism with PFNA, rabbit serum IgG; details: 0.001-1 mM PFNA
Excerpt: FIGS. 14A-14L depict circular dichroism spectra of Hb (FIG. 14A), GFP (FIG. 14B), BSA (FIG. 14C), β-Gal (FIG. 14D), rabbit serum IgG (FIG. 14E), transferrin (FIG. 14F), and urease (FIG. 14G) in the absence (black line) or presence (dashed lines) of PFNA. Increasing dash sequence indicated higher concentration of PFNA. FIG. 14H: Change in molar ellipticity at 216 nm (Δθ216) of PFNA-treated proteins, relative to native controls, as a function of increasing ligand concentration. FIG. 14I: Percentage change in secondary structural motifs of Hb, β-Gal and IgG between the native protein and 1 mM PFNA treated samples. β-sheet structures were further differentiated into parallel and antiparallel conformations. Hb, β-Gal and IgG were prioritized for analysis based on their significant spectral shift in the presence of 1 mM PFNA. FIGS. 14J-14L: Sensograms for BSA (FIG. 14J), β-gal (FIG. 14K), and IgG (FIG. 14L) showing relative response (R.U.) at 10, 25, 50, 75, and 100 μM.
To explore PFNA-mediated changes in protein structure, dose-response circular dichroism (CD) studies were performed (FIG. 14A-14G). […] Remarkably, these structural changes endured even at sub-stoichiometric PFNA:protein ratios (see 0.001 mM PFNA in […]; protein concentration was constant at 0.01 mM).

[2] = β-Gal activity after bleach exposure; format: physicochemical; details: β-Gal in PFOc
Description: (§1) FIGS. 54A-54C depict the relative activity of the β-Gal protein dispersed in PBS or PFOc solvents without and with contamination by (FIG. 54A) proteinase K, (FIG. 54B) bleach or (FIG. 54C) hydrochloric acid. Data shown as average±s.d. of n=3 technical replicates. Statistical significance between conditions is indicated by a line using unpaired Student's t-test with n.s.=not significant, * p<0.05, ** p<0.01, and *** p<0.001.
(§2) Here, stock of lyophilized β-Gal was prepared then dispersed in PBS or PFOc. A small volumetric quantity (1% v/v) of 10% bleach was added to the protein samples. Immediately, an equal volume of PBS containing 4 mg/mL ONPG substrate was added to the sample and incubated for 5 minutes to allow for complete substrate conversion. Last, absorbance was taken at 420 nm on the eluted samples, and relative activity was calculated by normalizing absorbance of converted ONPG in oxidizer-treated samples against their corresponding untreated group. […] Here, stock of lyophilized B-Gal was prepared then dispersed in PBS or PFOc. A small volumetric quantity (4% v/v) of 0.1 M HCl was added to the protein samples. After 30 seconds incubation, PBS containing 4 mg/mL ONPG was added to each of the samples to elute and start substrate conversion. After 3-minute conversion, the eluted samples were retrieved, and absorbance was read at 420 nm. […]

[3] = β-Gal activity after hydrochloric acid exposure; format: physicochemical; details: β-Gal in PFOc
Description: as §1, §2

[4] = Temperature-dependent circular dichroism of proteins in PFOc or PBS (Example 4); format: physicochemical; details: dispersed in PFOc using PD-7, heated up to 85 °C
Description: FIGS. 39A-39B depict temperature-dependent CD spectra of the indicated test protein solubilized in PFOc using the PD-7 dispersant, or PBS as a control.
FIG. 40 depicts the change in minimum CD ellipticity over the 40 °C-85 °C temperature interval for the indicated protein dissolved in either PBS or PFOc.
To determine structural integrity of proteins in aqueous and fluorinated environments at elevated temperatures, circular dichroism (CD) was used to probe secondary structure. Proteins were either diluted in PBS (aqueous) or dispersed in PFOc at the same designated concentrations according to protocol described above. For aqueous samples, dissolved proteins were heated between 40 °C to 90 °C, and their corresponding CD spectra at each temperature was measured. For PFOc samples, each of the PFOc dispersed proteins were subjected to heat treatment at 40, 55, 70, and 85 °C for 15 minutes. After that, dispersed proteins were eluted into PBS before having their CD spectra taken. Data is shown by representative ellipticity at each temperature depicted by distinct colors.

Sequence of TFN (Q29443 20-704): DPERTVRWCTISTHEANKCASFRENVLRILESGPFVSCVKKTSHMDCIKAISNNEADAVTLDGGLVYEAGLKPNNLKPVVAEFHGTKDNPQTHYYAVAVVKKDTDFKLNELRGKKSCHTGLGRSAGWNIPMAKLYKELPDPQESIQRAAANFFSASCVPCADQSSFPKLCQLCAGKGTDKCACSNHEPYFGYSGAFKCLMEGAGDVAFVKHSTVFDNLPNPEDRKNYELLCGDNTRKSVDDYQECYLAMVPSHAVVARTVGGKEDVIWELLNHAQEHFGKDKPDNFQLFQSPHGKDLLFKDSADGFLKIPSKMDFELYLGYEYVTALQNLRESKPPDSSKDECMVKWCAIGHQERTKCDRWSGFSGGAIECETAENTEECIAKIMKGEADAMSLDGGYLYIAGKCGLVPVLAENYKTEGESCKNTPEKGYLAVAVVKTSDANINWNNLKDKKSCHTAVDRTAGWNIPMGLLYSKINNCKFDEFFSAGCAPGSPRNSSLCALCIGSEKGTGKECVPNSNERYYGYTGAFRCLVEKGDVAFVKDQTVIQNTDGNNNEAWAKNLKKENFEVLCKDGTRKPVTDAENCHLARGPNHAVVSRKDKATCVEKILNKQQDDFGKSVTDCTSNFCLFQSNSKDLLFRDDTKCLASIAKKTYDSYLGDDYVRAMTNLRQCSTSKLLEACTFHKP

| Molecule | 19F NMR peak change upon interaction (TFN) | dispersion efficiency [1] | evolution of heat (ITC) (IgG) | CD structural change, rabbit serum IgG (rabbit serum IgG) | β-Gal activity versus PBS controls ([2]; bleach) | loss in functionality ([2]; bleach (1% v/v of 10% bleach), few minutes) | β-Gal activity versus PBS controls ([3]; HCl) | loss in functionality ([3]; HCl (4% v/v of 0.1 M), few minutes) | change in secondary structure [4] |
| --- | --- | --- | --- | --- | --- | --- | --- | --- | --- |
| O=C(O)C(F)(F)C(F)(F)C(F)(F)C(F)(F)C(F)(F)C(F)(F)C(F)(F)C(F)(F)F [Compound 7, perfluoronanonic acid] | broadening of PFNA's peaks | ≤ 50% | no significant evolution of heat | marked increase in β-sheet content | – | – | – | – | – |
| β-Gal: β-Galactosidase (β-Gal), dissolved in PBS/saline or dispersed in PFOc | – | – | – | – | statistically higher than that of PBS controls | ≥ 50% | statistically higher than that of PBS controls | ≥ 50% | minimal changes in secondary structure |
